{"source": "patent EP1900816A2", "molecules": {"B1": {"name": "mICOS-mIgG2am fusion protein (Fc fusion)", "chain": "EINGSADHRMFSFHNGGVQISCKYPETVQQLKMRLFREREVLCELTKTKGSGNAVSIKNPMLCLYHLSNNSVSFFLNNPDSSQGSYYFCSLSIFDPPPFQERNLSGGYLHIYESQLCCQLKLEPRGPTIKPCPPCKCPAPNLEGGPSVFIFPPKIKDVLMISLSPIVTCVVVDVSEDDPDVQISWFVNNVEVHTAQTQTHREDYNSTLRVVSALPIQHQDWMSGKAFACAVNNKDLPAPIERTISKPKGSVRAPQVYVLPPPEEEMTKKQVTLTCMVTDFMPEDIYVEWTNNGKTELNYKNTEPVLDSDGSYFMYSKLRVEKKNWVERNSYSCSVVHEGLHNHHTTKSFSRTPGK"}}, "key": {"[1]": {"target": "B7-1 on the surface of mouse cells (WEHI 231, undifferentiated ES cells) (mouse) (UniProt Q00609)", "sequence (Q00609 38-306)": "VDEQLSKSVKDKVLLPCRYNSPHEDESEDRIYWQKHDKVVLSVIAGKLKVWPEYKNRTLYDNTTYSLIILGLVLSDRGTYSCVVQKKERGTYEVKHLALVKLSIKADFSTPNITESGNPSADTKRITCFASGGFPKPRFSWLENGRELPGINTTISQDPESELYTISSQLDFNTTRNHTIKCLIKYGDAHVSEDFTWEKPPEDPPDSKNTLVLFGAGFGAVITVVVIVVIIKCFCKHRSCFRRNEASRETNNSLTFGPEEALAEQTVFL", "test": "flow cytometry, titration on WEHI 231 cells, which carry both B7-1 and B7-2"}, "[2]": {"target": "T1, B7-2 on the surface of WEHI 231 cells (mouse) (UniProt P42082)", "T1 sequence (looked up)": "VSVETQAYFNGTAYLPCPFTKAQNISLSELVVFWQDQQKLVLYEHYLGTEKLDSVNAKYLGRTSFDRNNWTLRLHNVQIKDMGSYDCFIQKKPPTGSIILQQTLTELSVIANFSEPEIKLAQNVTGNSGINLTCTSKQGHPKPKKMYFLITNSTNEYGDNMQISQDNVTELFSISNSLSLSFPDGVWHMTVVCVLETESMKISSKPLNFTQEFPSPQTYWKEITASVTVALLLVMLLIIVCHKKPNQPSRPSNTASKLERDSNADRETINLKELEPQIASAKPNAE", "test": "flow cytometry, titration on WEHI 231 cells, which carry both B7-1 and B7-2"}, "[3]": {"target": "ICOS-ligand (GL50) on the surface of mouse cells (WEHI 231, undifferentiated ES cells, splenocytes) (mouse) (UniProt Q9JHJ8)", "sequence (Q9JHJ8 44-322)": "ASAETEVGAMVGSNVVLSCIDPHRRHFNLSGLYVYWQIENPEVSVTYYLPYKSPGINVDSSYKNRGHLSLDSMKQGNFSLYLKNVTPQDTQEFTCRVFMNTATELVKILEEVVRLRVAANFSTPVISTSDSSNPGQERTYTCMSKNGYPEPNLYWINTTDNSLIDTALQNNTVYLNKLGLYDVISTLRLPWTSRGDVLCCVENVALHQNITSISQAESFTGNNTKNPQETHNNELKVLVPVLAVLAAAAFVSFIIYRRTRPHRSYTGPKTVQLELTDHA", "test": "two-colour flow cytometry, RAG1-/- splenocytes, cells stained by anti-CD24"}, "[4]": {"target": "ICOS-ligand (GL50) on the surface of mouse cells (WEHI 231, undifferentiated ES cells, splenocytes) (mouse) (UniProt Q9JHJ8)", "test": "two-colour flow cytometry, Balb/C splenocytes, cells stained by anti-CD19"}, "[5]": {"target": "ICOS-ligand (GL50) on the surface of mouse cells (WEHI 231, undifferentiated ES cells, splenocytes) (mouse) (UniProt Q9JHJ8)", "test": "two-colour flow cytometry, RAG1-/- splenocytes, cells stained by anti-pan NK"}, "[6]": {"target": "ICOS-ligand (GL50) on the surface of mouse cells (WEHI 231, undifferentiated ES cells, splenocytes) (mouse) (UniProt Q9JHJ8)", "test": "two-colour flow cytometry, Balb/C splenocytes, cells stained by anti-pan NK"}, "[7]": {"target": "ICOS-ligand (GL50) on the surface of mouse cells (WEHI 231, undifferentiated ES cells, splenocytes) (mouse) (UniProt Q9JHJ8)", "test": "two-colour flow cytometry, Balb/C splenocytes, cells stained by anti-CD8a"}, "[8]": {"target": "ICOS-ligand (GL50) on the surface of mouse cells (WEHI 231, undifferentiated ES cells, splenocytes) (mouse) (UniProt Q9JHJ8)", "test": "two-colour flow cytometry, Balb/C splenocytes, cells stained by anti-CD45R/B220"}, "[9]": {"target": "ICOS-ligand (GL50) on the surface of mouse cells (WEHI 231, undifferentiated ES cells, splenocytes) (mouse) (UniProt Q9JHJ8)", "test": "two-colour flow cytometry, Balb/C splenocytes, cells stained by anti-CD11C"}, "[10]": {"target": "ICOS-ligand (GL50) on the surface of mouse cells (WEHI 231, undifferentiated ES cells, splenocytes) (mouse) (UniProt Q9JHJ8)", "test": "two-colour flow cytometry, Balb/C splenocytes, cells stained by anti-CD4"}, "[11]": {"target": "ICOS-ligand (GL50) on the surface of mouse cells (WEHI 231, undifferentiated ES cells, splenocytes) (mouse) (UniProt Q9JHJ8)", "test": "flow cytometry, titration on WEHI 231 cells"}, "[12]": {"target": "ICOS-ligand (GL50) on the surface of mouse cells (WEHI 231, undifferentiated ES cells, splenocytes) (mouse) (UniProt Q9JHJ8)", "test": "two-colour flow cytometry, RAG1-/- splenocytes, cells stained by anti CD69"}, "[13]": {"target": "ICOS-ligand (GL50) on the surface of mouse cells (WEHI 231, undifferentiated ES cells, splenocytes) (mouse) (UniProt Q9JHJ8)", "test": "two-colour flow cytometry, Balb/C splenocytes, cells stained by anti-CD11B"}, "[14]": {"target": "ICOS-ligand (GL50) on the surface of mouse cells (WEHI 231, undifferentiated ES cells, splenocytes) (mouse) (UniProt Q9JHJ8)", "test": "two-colour flow cytometry, Balb/C splenocytes, cells stained by anti-CD24"}, "[15]": {"target": "ICOS-ligand (GL50) on the surface of mouse cells (WEHI 231, undifferentiated ES cells, splenocytes) (mouse) (UniProt Q9JHJ8)", "test": "flow cytometry, indirect staining of undifferentiated CCE ES cells"}, "[16]": {"target": "ICOS-ligand (GL50) on the surface of mouse cells (WEHI 231, undifferentiated ES cells, splenocytes) (mouse) (UniProt Q9JHJ8)", "test": "two-colour flow cytometry, Balb/C splenocytes, cells stained by anti class II"}, "[17]": {"target": "ICOS-ligand (GL50) on the surface of mouse cells (WEHI 231, undifferentiated ES cells, splenocytes) (mouse) (UniProt Q9JHJ8)", "test": "two-colour flow cytometry, RAG1-/- splenocytes, cells stained by anti-CD45R/B220"}, "[18]": {"target": "ICOS-ligand (GL50) on the surface of mouse cells (WEHI 231, undifferentiated ES cells, splenocytes) (mouse) (UniProt Q9JHJ8)", "test": "two-colour flow cytometry, Balb/C splenocytes, cells stained by anti-CD3"}, "[19]": {"target": "ICOS-ligand (GL50) on the surface of mouse cells (WEHI 231, undifferentiated ES cells, splenocytes) (mouse) (UniProt Q9JHJ8)", "test": "two-colour flow cytometry, RAG1-/- splenocytes, cells stained by anti-CD4"}, "[20]": {"target": "ICOS-ligand (GL50) on the surface of mouse cells (WEHI 231, undifferentiated ES cells, splenocytes) (mouse) (UniProt Q9JHJ8)", "test": "two-colour flow cytometry, Balb/C splenocytes, cells stained by anti CD69"}, "[21]": {"target": "ICOS-ligand (GL50) on the surface of mouse cells (WEHI 231, undifferentiated ES cells, splenocytes) (mouse) (UniProt Q9JHJ8)", "test": "two-colour flow cytometry, RAG1-/- splenocytes, cells stained by anti-CD11B"}, "[22]": {"target": "ICOS-ligand (GL50) on the surface of mouse cells (WEHI 231, undifferentiated ES cells, splenocytes) (mouse) (UniProt Q9JHJ8)", "test": "two-colour flow cytometry, Balb/C splenocytes, cells stained by anti CD40"}, "[23]": {"target": "ICOS-ligand (GL50) on the surface of mouse cells (WEHI 231, undifferentiated ES cells, splenocytes) (mouse) (UniProt Q9JHJ8)", "test": "two-colour flow cytometry, RAG1-/- splenocytes, cells stained by anti-CD11C"}, "[24]": {"target": "ICOS-ligand (GL50) on the surface of mouse cells (WEHI 231, undifferentiated ES cells, splenocytes) (mouse) (UniProt Q9JHJ8)", "test": "two-colour flow cytometry, RAG1-/- splenocytes, cells stained by anti class II"}}}
{"molecule": "mCTLA4-mIgG2am fusion protein (from UniProt P09793 36-161) (Fc fusion)", "values": [{"measurement": "concentration at which staining was clearly detectable", "setting": "[1]", "result": 8, "unit": "ng/mL"}, {"measurement": "fold binding affinity against mICOS-mIgG2am binding to GL50 on WEHI cells", "setting": "[1]", "result": "> 100", "unit": "fold"}, {"measurement": "concentration at which staining was clearly detectable", "setting": "[2]", "result": 8, "unit": "ng/mL"}, {"measurement": "fold binding affinity against mICOS-mIgG2am binding to GL50 on WEHI cells", "setting": "[2]", "result": "> 100", "unit": "fold"}]}
{"molecule": "B1", "values": [{"measurement": "% ICOS-lg positive", "setting": "[3]", "result": 28, "unit": "%"}, {"measurement": "% ICOS-lg positive", "setting": "[4]", "result": 97, "unit": "%"}, {"measurement": "% ICOS-lg positive", "setting": "[5]", "result": 3, "unit": "%"}, {"measurement": "% ICOS-lg positive", "setting": "[6]", "result": 20, "unit": "%"}, {"measurement": "% ICOS-lg positive", "setting": "[7]", "result": 10, "unit": "%"}, {"measurement": "% ICOS-lg positive", "setting": "[8]", "result": 97, "unit": "%"}, {"measurement": "% ICOS-lg positive", "setting": "[9]", "result": 43, "unit": "%"}, {"measurement": "% ICOS-lg positive", "setting": "[10]", "result": 8, "unit": "%"}, {"measurement": "concentration from which staining was minimally detectable", "setting": "[11]", "result": 1, "unit": "µg/mL"}, {"measurement": "% ICOS-lg positive", "setting": "[12]", "result": 5, "unit": "%"}, {"measurement": "% ICOS-lg positive", "setting": "[13]", "result": 26, "unit": "%"}, {"measurement": "% ICOS-lg positive", "setting": "[14]", "result": 94, "unit": "%"}, {"measurement": "fluorescence shift over background", "setting": "[15]", "result": 0.5, "unit": "log"}, {"measurement": "% ICOS-lg positive", "setting": "[16]", "result": 95, "unit": "%"}, {"measurement": "% ICOS-lg positive", "setting": "[17]", "result": 5, "unit": "%"}, {"measurement": "% ICOS-lg positive", "setting": "[18]", "result": 10, "unit": "%"}, {"measurement": "% ICOS-lg positive", "setting": "[19]", "result": 45, "unit": "%"}, {"measurement": "% ICOS-lg positive", "setting": "[20]", "result": 25, "unit": "%"}, {"measurement": "% ICOS-lg positive", "setting": "[21]", "result": 31, "unit": "%"}, {"measurement": "% ICOS-lg positive", "setting": "[22]", "result": 97, "unit": "%"}, {"measurement": "% ICOS-lg positive", "setting": "[23]", "result": 55, "unit": "%"}, {"measurement": "% ICOS-lg positive", "setting": "[24]", "result": 3, "unit": "%"}]}
